Where a chain is given by its changes, count along the chain named. Names may count otherwise. One block for each binder: values may come before it.
What was measured:
Test in all cases: cell-based or functional assay
[1] = biological target: T1, Chryseobacterium sp-62563 deamidase C169S (Chryseobacterium sp-62563)
T1 sequence: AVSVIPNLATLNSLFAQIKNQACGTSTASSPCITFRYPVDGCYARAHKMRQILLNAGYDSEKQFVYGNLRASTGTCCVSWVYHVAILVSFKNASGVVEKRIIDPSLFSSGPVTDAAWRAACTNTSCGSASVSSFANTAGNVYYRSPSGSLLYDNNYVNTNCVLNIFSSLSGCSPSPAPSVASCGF

[2] = biological target: T2, Chryseobacterium sp-62563 deamidase Q126E (Chryseobacterium sp-62563)
T2 sequence: T1 sequence with Q17E, S60C

[3] = biological target: T3, Chryseobacterium sp-62563 deamidase Q160D (Chryseobacterium sp-62563)
T3 sequence: T1 sequence with Q51D, S60C

[4] = biological target: T4, Chryseobacterium sp-62563 deamidase Q126D (Chryseobacterium sp-62563)
T4 sequence: T1 sequence with Q17D, S60C

[5] = biological target: T5, Chryseobacterium sp-62563 deamidase Q160E (Chryseobacterium sp-62563)
T5 sequence: T1 sequence with Q51E, S60C

[6] = biological target: T6, Chryseobacterium sp-62563 deamidase Q126N (Chryseobacterium sp-62563)
T6 sequence: T1 sequence with Q17N, S60C

[7] = biological target: T7, Chryseobacterium sp-62563 deamidase Q172E (Chryseobacterium sp-62563)
T7 sequence: T1 sequence with S60C, Q63E

[8] = biological target: T8, Chryseobacterium sp-62563 deamidase Q126K (Chryseobacterium sp-62563)
T8 sequence: T1 sequence with Q17K, S60C

[9] = biological target: T9, Chryseobacterium sp-62563 deamidase C230H (Chryseobacterium sp-62563)
T9 sequence: T1 sequence with S60C, C121H

[10] = biological target: T10, Chryseobacterium sp-62563 deamidase Q160R (Chryseobacterium sp-62563)
T10 sequence: T1 sequence with Q51R, S60C

[11] = biological target: T11, Chryseobacterium sp-62563 deamidase Q172N (Chryseobacterium sp-62563)
T11 sequence: T1 sequence with S60C, Q63N

[12] = biological target: T12, Chryseobacterium sp-62563 deamidase Q126Y (Chryseobacterium sp-62563)
T12 sequence: T1 sequence with Q17Y, S60C

[13] = biological target: Chryseobacterium sp-62563 deamidase A131* (Chryseobacterium sp-62563)
[14] = biological target: Chryseobacterium sp-62563 deamidase D262* (Chryseobacterium sp-62563)
[15] = biological target: Chryseobacterium sp-62563 deamidase V148* (Chryseobacterium sp-62563)

Leakage activity [1]: 1%
Relative activity of maturated deamidase (% initial rate) [1]: > 100
Relative activity of maturated deamidase (% initial rate) [2]: > 100
Relative activity of maturated deamidase (% initial rate) [3]: > 100
Relative activity of maturated deamidase (% initial rate) [4]: 99
Relative activity of maturated deamidase (% initial rate) [5]: > 100
Relative activity of maturated deamidase (% initial rate) [6]: > 100
Relative activity of maturated deamidase (% initial rate) [7]: 64
Relative activity of maturated deamidase (% initial rate) [8]: > 100
Leakage activity [9]: 0%
Relative activity of maturated deamidase (% initial rate) [10]: 86
Relative activity of maturated deamidase (% initial rate) [11]: 51
Leakage activity [12]: 3%
Relative activity of maturated deamidase (% initial rate) [12]: 98
B1: Chryseobacterium sp-62563 propeptide F99A (protein)
chain: NQDPNLVAKESNETAMKDFGKTVPVGIEKEDGKFKISFMVTAQPYEIKDSKENAAYISMIKTAVENETPIHVFLKANTNEIAKVDKATDDDIRYFKSVATKEVKEENRK

NanoDSF thermal unfolding temperature [13]: 79.1 ° C.
NanoDSF thermal unfolding temperature [14]: 77.7 ° C.
NanoDSF thermal unfolding temperature [15]: 69.2 ° C.
B2: Chryseobacterium sp-62563 propeptide (first polypeptide, propeptide domain), wildtype (other)
chain: B1 chain with A99F

Reference: US20250215412A1 (NOVOZYMES A S, published 2025)
